Laboratory results as given in patent US20110039801A1.

Biological target: human NK1 receptor (transiently expressed in HEK293 cells) (human) (UniProt P25103)
Assay: cell-based or functional assay

Chain of UniProt P25103 (P25103 whole entry): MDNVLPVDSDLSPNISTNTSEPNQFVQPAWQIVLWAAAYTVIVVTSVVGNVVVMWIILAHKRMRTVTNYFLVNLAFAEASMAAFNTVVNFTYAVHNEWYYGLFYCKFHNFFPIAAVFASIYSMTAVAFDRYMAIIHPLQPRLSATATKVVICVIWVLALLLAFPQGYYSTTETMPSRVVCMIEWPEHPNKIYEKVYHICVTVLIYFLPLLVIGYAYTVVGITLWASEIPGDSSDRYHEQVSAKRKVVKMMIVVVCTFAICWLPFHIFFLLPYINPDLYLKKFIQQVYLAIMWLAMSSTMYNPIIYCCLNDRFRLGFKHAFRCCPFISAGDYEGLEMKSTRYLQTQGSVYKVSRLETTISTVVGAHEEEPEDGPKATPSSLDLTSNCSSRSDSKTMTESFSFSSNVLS

## SPANTIDE II (peptidic analog of substance P) (peptide)
  NK1 receptor antagonistic activity (calcium imaging, inhibition of the substance P (100 µM) induced rise in fluorescence): 65%
